Experimental data taken from article PMC2946844.

T1: 1xMBD-GFP (UniProt Q9Z2E2 1-75)
T1 sequence: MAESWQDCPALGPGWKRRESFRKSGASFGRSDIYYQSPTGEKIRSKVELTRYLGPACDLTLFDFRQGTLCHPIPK

B1: o_o_m/m_o_m (dsDNA)
DNA 1: TTTGCGGTCCGCTGCCCGACCC
DNA 2: GGGTCGGGCAGCGGACCGCAAA
modifications: strand 1 5mC17; strand 2 5mC5,5mC17
B2: m_o_o*/o_o_o (dsDNA)
DNA 1: GTAGTTTGCGGTCCGCTGCCCGACC
DNA 2: GGGTCGGGCAGCGGACCGCAAA
modifications: strand 1 5mC9
B3: o_m_o/o_m_m (dsDNA)
DNA 1: TTTGCGGTCCGCTGCCCGACCC
DNA 2: GGGTCGGGCAGCGGACCGCAAA
modifications: strand 1 5mC10; strand 2 5mC5,5mC12
B4: o_o_o/m_o_m (dsDNA)
DNA 1: TTTGCGGTCCGCTGCCCGACCC
DNA 2: GGGTCGGGCAGCGGACCGCAAA
modifications: strand 2 5mC5,5mC17
B5: m_o_o/o_m_o (dsDNA)
DNA 1: TTTGCGGTCCGCTGCCCGACCC
DNA 2: GGGTCGGGCAGCGGACCGCAAA
modifications: strand 1 5mC5; strand 2 5mC12
B6: o_m_m/m_o_o (dsDNA)
DNA 1: TTTGCGGTCCGCTGCCCGACCC
DNA 2: GGGTCGGGCAGCGGACCGCAAA
modifications: strand 1 5mC10,5mC17; strand 2 5mC17
B7: o_o_m/m_o_o (dsDNA)
DNA 1: TTTGCGGTCCGCTGCCCGACCC
DNA 2: GGGTCGGGCAGCGGACCGCAAA
modifications: strand 1 5mC17; strand 2 5mC17
B8: m_o_o/m_o_m (dsDNA)
DNA 1: TTTGCGGTCCGCTGCCCGACCC
DNA 2: GGGTCGGGCAGCGGACCGCAAA
modifications: strand 1 5mC5; strand 2 5mC5,5mC17
B9: m_o_o/o_m_m (dsDNA)
DNA 1: TTTGCGGTCCGCTGCCCGACCC
DNA 2: GGGTCGGGCAGCGGACCGCAAA
modifications: strand 1 5mC5; strand 2 5mC5,5mC12
B10: o_m_o/o_m_o (dsDNA)
DNA 1: TTTGCGGTCCGCTGCCCGACCC
DNA 2: GGGTCGGGCAGCGGACCGCAAA
modifications: strand 1 5mC10; strand 2 5mC12
B11: m_o_o/o_o_o (dsDNA)
DNA 1: TTTGCGGTCCGCTGCCCGACCC
DNA 2: GGGTCGGGCAGCGGACCGCAAA
modifications: strand 1 5mC5
B12: m_o_o*/o_m_m (dsDNA)
DNA 1: GTAGTTTGCGGTCCGCTGCCCGACC
DNA 2: GGGTCGGGCAGCGGACCGCAAA
modifications: strand 1 5mC9; strand 2 5mC5,5mC12
B13: o_m_m/o_m_o (dsDNA)
DNA 1: TTTGCGGTCCGCTGCCCGACCC
DNA 2: GGGTCGGGCAGCGGACCGCAAA
modifications: strand 1 5mC10,5mC17; strand 2 5mC12
B14: o_o_m/o_m_m (dsDNA)
DNA 1: TTTGCGGTCCGCTGCCCGACCC
DNA 2: GGGTCGGGCAGCGGACCGCAAA
modifications: strand 1 5mC17; strand 2 5mC5,5mC12
B15: o_o_o/o_m_m (dsDNA)
DNA 1: TTTGCGGTCCGCTGCCCGACCC
DNA 2: GGGTCGGGCAGCGGACCGCAAA
modifications: strand 2 5mC5,5mC12
B16: o_o_o/o_o_o (dsDNA)
DNA 1: TTTGCGGTCCGCTGCCCGACCC
DNA 2: GGGTCGGGCAGCGGACCGCAAA
B17: o_m_m/o_m_m (dsDNA)
DNA 1: TTTGCGGTCCGCTGCCCGACCC
DNA 2: GGGTCGGGCAGCGGACCGCAAA
modifications: strand 1 5mC10,5mC17; strand 2 5mC5,5mC12
B18: m_o_o*/o_m_o (dsDNA)
DNA 1: GTAGTTTGCGGTCCGCTGCCCGACC
DNA 2: GGGTCGGGCAGCGGACCGCAAA
modifications: strand 1 5mC9; strand 2 5mC12
B19: o_m_o/m_o_m (dsDNA)
DNA 1: TTTGCGGTCCGCTGCCCGACCC
DNA 2: GGGTCGGGCAGCGGACCGCAAA
modifications: strand 1 5mC10; strand 2 5mC5,5mC17
B20: o_o_m/o_m_o (dsDNA)
DNA 1: TTTGCGGTCCGCTGCCCGACCC
DNA 2: GGGTCGGGCAGCGGACCGCAAA
modifications: strand 1 5mC17; strand 2 5mC12
B21: m_o_o*/m_o_m (dsDNA)
DNA 1: GTAGTTTGCGGTCCGCTGCCCGACC
DNA 2: GGGTCGGGCAGCGGACCGCAAA
modifications: strand 1 5mC9; strand 2 5mC5,5mC17
B22: o_o_o/o_m_o (dsDNA)
DNA 1: TTTGCGGTCCGCTGCCCGACCC
DNA 2: GGGTCGGGCAGCGGACCGCAAA
modifications: strand 2 5mC12

target: T1, 1xMBD-GFP; experiment: SPR

Row | Binder | Kd
1 | B1 | 0.179 ± 0.001 µM
2 | B2 | 13.1 ± 0.3 µM
3 | B3 | 0.252 ± 0.002 µM
4 | B4 | 5.7 ± 0.3 µM
5 | B5 | 5.5 ± 0.9 µM
6 | B6 | 3.47 ± 0.05 µM
7 | B7 | 5.97 ± 0.08 µM
8 | B8 | 2.08 ± 0.02 µM
9 | B9 | 3.67 ± 0.03 µM
10 | B10 | 0.244 ± 0.002 µM
11 | B11 | 35 ± 1 µM
12 | B12 | 3.74 ± 0.06 µM
13 | B13 | 0.271 ± 0.005 µM
14 | B14 | 0.116 ± 0.001 µM
15 | B15 | 4.28 ± 0.05 µM
16 | B16 | 72 ± 5 µM
17 | B17 | 0.139 ± 0.007 µM
18 | B18 | 5.41 ± 0.05 µM
19 | B19 | 8.6 ± 0.1 µM
20 | B20 | 2.3 ± 0.06 µM
21 | B21 | 0.564 ± 0.004 µM
22 | B22 | 12 ± 1 µM
